Reference: a protein production outcome set (Wang et al. 2014)

Experiment: label from the status in PepcDB records

Row | Sequence | protein production
1 | MQHPRQGPPSRHTRRSLGRSLALTMTAVLGAAGLALSPAASADSGPTTADPTEAHGLKGEYYTQSAPGAFDFAELKATGFDPGLDFDSLESRLSAATGRADDVSVRWTGEVVPEKSGPTTFSITGDNGFRLWVDGKLTIDHWVDDWDREQTSQPVDLTAGRAYDIKVEYFEHFGGSNLHLRWTPPGGSKSAVPQSAFRLPDGFDYNGALSATVLGDGRTVRLDFPQALASAPATVLDHLTVTSGGKWPLSSVKTDPSDARALLVGLGEPVVGNKAGTAKGGVNVTYDGKGALADTSGTPVKAFWSSGPNKSTYELRTKWADQVGPKNALPEYPRPQLTRKAWQNLNGTWQFAGAKAGEEPPTGRTLAERILVPYPVESQLSGIERHEDRMWYRRTFTVPADWKVGHGKRLRLNFGAVDWQSEVYVNGTKVAEHKGGYDKFSADVTDALKPGRTQELIVGVYDPTDAQGGENPPLGKQRLDPSGIWYTPSSGIWQTVWMEPVAADHVDTLKLTPDVETSTLTVEPKGVRDGLAVTATAYDGKKKVATVRGRTGTPLTLKLAEPRLWSPDDPFLYDLKVDVGADRVGSYFGMRSIAVEKVDGTPRTVLNGKPVFMMATLDQGFWPDGLHTAPTDDALAHDLKMHKQMGFNSVRKHIKVEPDRWFYWADRLGLLVWQDMPAMTAGVNPNAASRAEYEREMKQLIDEHISSPSVVMWVTFNEGWGQYDEARIADQAKAWDPTRLVNSMSGLNLGVDGGTGDVMDEHGYPSPALPPHPDGRRALVSGEYGGLGLGVPGHAWSVQMSYVDVDPAAYTDTYLARLDEVRRLACRGGNGAVYTQISDVEGELNGLMTYDRKIVKPDVQRLRTAHEALIEAVAQSTLPCATS | failed
2 | MKSLEEKTIAKEQIFSGKVIDLYVEDVELPNGKASKREIVKHPGAVAVLAVTDEGKIIMVKQFRKPLERTIVEIPAGKLEKGEEPEYTALRELEEETGYTAKKLTKITAFYTSPGFADEIVHVFLAEELSVLEEKRELDEDEFVEVMEVTLEDALKLVESREVYDAKTAYAIQYLQLKEALQAQK | failed
3 | IKSISKDYFDYLQTESKFIPLENETIEFYSPIVDYFGDSISVNISFSGDRYKLTDHGETLWNMEQLGIDLTSNKKQKKYQLLNNIVQNYSLVIENKHINFYTNRINLSQAIHDYVLAISEISYLGILKKENIKSLFKDEVMQYFLSNRKIYPNIFPEFKVEGKSKLIHSFEAVFPGEATEYVKTIKRIDKNNAKNVLFDWNDVEIHRNKNFDSNARLNIITEQQDDISEAVSTMLSQYNVEVFSFENKKQLEEKF | failed
4 | MPEEALKTYEELLELEKRIGNKREIGLTLANLAIIKDELGNVEEAIKLMEEARKIFEELKDENNYLISLIDLAHFKYELGEYEEAMKLIREVLRNPVDKEIEVNARLVESEIYAGERKYKEAAISLRNALQRSEDDEELFSLVFDSLTEFLEGLFNESRLEHHHHHH | not failed
5 | MSLSVKILFKNATVFPITSRPFKGDVLVSNGKVEKVGENIEDPDAEIVDLTGKFLFPGFVDAHSHIGLFEEGVGYYYSDGNEATDPVTPHVKALDGFNPQDPAIERALAGGVTSVMIVPGSANPVGGQGSVIKFRSIIVEECIVKDPAGLKMAFGENPKRVYGERKQTPSTRMGTAGVIRDYFTKVKNYMKKKELAQKEGKEFTETDLKMEVGEMVLRKKIPARMHAHRADDILTAIRIAEEFGFNLVIEHGTEAYKISKVLAEKKIPVVVGPLLTFRTKLELKDLTMETIAKLLKDGVLIALMCDHPVIPLEFATVQAATAMRYGAKEEDLLKILTVNPAKILGLEDRIGSIEPGKDADLVVWSGHPFDMKSVVERVYIDGVEVFRREGHHHHHH | not failed
6 | MSYLVVTIKVILITGMPGSGKSEFAKLLKERGAKVIVMSDVVRKRYSIEAKPGERLMDFAKRLREIYGDGVVARLCVEELGTSNHDLVVFDGVRSLAEVEEFKRLLGDSVYIVAVHSPPKIRYKRMIERLRSDDSKEISELIRRDREELKLGIGEVIAMADYIITNDSNYEEFKRRCEEVTDRVLKNG | failed
7 | MNNTKTYSKTSIALHWIVGLAFIGVFIIGAYLSDLPRGPEKMELVALHKSFGVLILLIALARVFWRIKEGAIPPASVMPAWQEKVAKAVHGLLLLATLAMPLSGIAMNIGGGRALEVFGYTLVAAGEKVVWLQELGAAVHKTAPPIIIAIVLLHIAAVLKHHLIDKDATMARMLGRG | failed
8 | MQGVLLALVPMFAWGSIGFVANKFGGDAKQQTLGMTLGAFVFALIVFLFRMPTLTWQIFLIGFIGGLLWAIGQFGQFNSMKYMGVSVASPLSSGSQLVIGGLIGVFAFHEWTKQIQFILGFIAMAVLVVGFYFSAKRDPENAVVEEGRNYTKGLTALTYSTLGYVIYVILFNNLAVLWFNVHFDTLTIILPMSVGMIFGALVMGRFKIKMEKYVYQNMIVGAMWGVGNIFMLMAASAAGNAIAFSFSQLGVIVSTIGGILFLGEKKTKKELVYVGIGIVLFVTGAILLAIVKSKG | failed
9 | MQGADADTVADALASDDALPGAGGFAGELDGTLVRDVLGRYPLFVERAVSDEARLDPGQWSHDPTALADPRSFPAGHIRNESGTQQRWSLPSLDPFGDRETAIETVGETVETSIDAVDTDSLAIAFSGGVDSALLAARLDAPLYVAGFPDSHDIEAARSAAELLGTEVRVVELTHDAIERAVPEIARATARTNAMDVQIALPLYLVAERVAGDGFDRLALGQGADELFGGYAKVAKAPEDPRVEADTVRGAQREVIASLPDQLERDVLALRAAGVEPVTPLLHDRVIGAALRLDGDLLVDGETRKVALRAAARESLPDEIADRDKKAAQYGSLAARELDRLARQAGYKRRMDDHVTQYVESLVE | failed
10 | MPIKKNSHVKTTEMNKYPVLQLKRDPEAIHHYLNGEIRILVPTEYQRIKNEISQKRHRTLFDVLMITGMRYVEVQRLWDHKEWYLKKKNIIHLPEEAQKKHKRTQQERTIHPLPGMFELLLDDFFEARKPPAESNWNRDLRKWAKDAGLNPYGLSAKTTRKTLESWCIAAGMLESTVCLRQGHDNLTSMKHYQGLAFSADELKDIEKQLTVWGMLK | failed
11 | MSRRSHNPQSCSSVPTALINGPRVETMTDSVLDVTADALEQAGAHPHRLVVRQHGQVVGRRRWAPWSPDVPSLVYSCSKTFTSAAVGIAVNRGAFGYDDTLADLWPQACTANTGPVAKSMTVRNALSMSTGHSPEQLLEPTLMSRRLPDLNTARILLATEPEGRPGIDFAYNNLATWMLSRLVAQHTGEDVDTIITKEVLDPIGAGPHTWVRDADGIPMGFSGLHIDAEDLSLFGQLLLDDGVHEGARLLPEEWIRQHRVRQVNCDSETDPEWGMGYGWQTWMSSHGYRLDGAFGQYVLIVPEVDAVITMTNEASEGPGDKQAILQAVWDHLLPALADGFQPQPEEIVRTVPTVTGEFDSARSVQGIAPDGSYIVVSPHKESRTWAMSWRCPGTFSHPTDETLDIAVGYEEWQTSHCRVGDDAIDIATSGGWQGETFVARLCVISTPHTLTLRMTPEATTTEWDNEPLNPGGLLGLVHPELRR | failed
12 | MGHHHHHHSHMLPPEQWSHTTVRNALKDLLKDMNQSSLAKECPLSQSMISSIVNSTYYANVSAAKCQEFGRWYKHFKKTKDMM | not failed
13 | MNKFFLESERLIIRPLEESDYDSWYTSFMNRGPSLTPFDDGILDMSMCDINWFKNLVNLQRKEWESDIVYIFGVFLKSGEHVGMLNIVTLARADMQWGELGYVFHNQFWSNGYAFESILALLNSTYEKLGFHHIEAQITPGNERSEKLVRRLGLTYETTRKDFSFENGKWTDKLIYSINLHNNNLE | failed
14 | IFRVLDDVDTAVFNRVGTLTDGEMTVETVTADKGEDPELVLRVAGALAMESHHAISKALVKASREARDTGAGGEDVPHWIEVGNVEITEAGSFQATIELPLIKPSGEKIMRTTEALLWRPRSMTEVREHLSPRLVAAATSGGAPLIVRWKGKDRGVITLSDHVRSDSSDAIIAIEEQGIETMMLSRDTYPVARRYADSLGITHVLAGIAPGKKAQVVRAVHTRGSTVAMIGDESVMDCLKVADVGVLMGVDRPSDLRDDSDDPAADVVVMREEVMSVPTLFKLARRYAKLVNGNIALAWIYNGVAM | failed
15 | MQRERTAESSLRVISKEKNSITVEMINYDNTLLRTLVEEILKDDQVDEARYYIKHPVIDNPQIYVRVKSGKPQSAIKRAVRKLSKLYEDLGTQFQKEFQRYESDHMIKAVE | not failed
16 | MRNPSEDHMMRTPYQIVADHYAASDRHDPAAMMADIAPAIEWTEMAGFPCAGTYRSADEIVRNVFRRLGEEWDGYTFKLDALHDAGDTVIGVGRYSGTYRRTGKSFECRVAHVWRVDAGKIVHFEQFTDTLLVAQAMQP | not failed
17 | AKTWVLTNAEEGIDKGNWQINSDQLKVKDHAFSIEQKVLHGGKQEGSKILTIHSKDGLTITLSPTRGMNLLRIEGFGSRMGWDSPVKEVVNPAFINLESRNGLGWLEGFNEMMVRCGYEWTGHPVTADGQIYTLHGKAGNTPASLVEVEVADSAPYEIRIRGLVKESTFKKADLQTLTELRYVPGSNSFSLHDVLTNHADYPHDYQIIYHSNFGTPILEEGARFLAPISSISPFNDYAKSGLKTWQTYQGPTKDFDEMVFNIQPLADENHQTLAAVVNKAGDKGASIQFDTRQLPVLTLWKNTDTVKQGYVTGIEPGTSYAYPVTIERKQKRVKQLQPGASAQFDLTYTLLHDSAQVAAVEQKIAKIQGDNKVAENETPIAKE | not failed
18 | MDHKDLAQRILRDIGGEDNIVAAAHCATRLRLVLKDTKDVDRQSLDDDPDLKGTFETGGMFQIIVGPGDVDHVFKELDDATSKDIAVSTEQLKDVVANNANWFSRAVKVLADIFVPLIPILVGGGLLMAINNVLVAQDLFGPQSLVEMFPQISGVAEMINLMASAPFAFLPVLVGFTATKRFGGNEFLGAGIGMAMVFPSLVNGYDVAATMAAGEMPMWSLFGLDVAQAGYQGTVLPVLVVSWILATIEKFLHKRLKGTADFLITPVLTLLLTGFLTFIAIGPAMRWVGDVLAHGLQGLYDFGGPVGGLLFGLVYSPIVITGLHQSFPPIELELFNQGGSFIFATASMANIAQGAACLAVFFLAKSEKLKGLAGASGVSAVLGITEPAIFGVNLRLRWPFFIGIGTAAIGGALIALFNIKAVALGAAGFLGVVSIDAPDMVMFLVCAVVTFFIAFGAAIAYGLYLVRRNGSIDPDATAAPVPAGTTKAEAEAPAEFSNDSTIIQAPLTGEAIALSSVSDAMFASGKLGSGVAIVPTKGQLVSPVSGKIVVAFPSGHAFAVRTKAEDGSNVDILMHIGFDTVNLNGTHFNPLKKQGDEVKAGELLCEFDIDAIKAAGYEVTTPIVVSNYKKTGPVNTYGLGEIEAGANLLNVAKKEAVPATP | failed
19 | QVGIYRTRTCDGLILNANQRFADLFGFDSPQEIIGIEHTIGYWVNPSDRQQGIEVMKRDGEVRSYEAQMRKRDGTVFWGLFSSYLNAGDDYIEGVIADISDVYDELRLRKQAEVALQASEAELRSLFSAIPDPLCVVTAQ | failed
20 | MTLGTNQVSKTHSFMTVSLIELWERFGYYGMQALIVYFMVQRLGFDDSRANLVWSACAALIYVSPAIGGWVGDKILGTKRTMLLGAGILSVGYALMTVPTENTWFMFSALGVIVVGNGLFKPNAGNLVRKIYEGDDSKIDSAFTIYYMAVNVGSTFSMLLTPWIKDYVNAQYGNEFGWHAAFAVCCVGILVGLGNYALMHKSLANYGSEPDTRPVNKKSLAIVLALAALSVVASAIILEYEDVARVFVYAAGVAVLGIFFHLIRTSEPSERAGLIAALILTVQTVFFFIFYQQMSTSLALFALRNVDWDFQVFGTHLWTWSPAQFQALNPIWIMVLSPVLAWSYSWAGRNNKDFSIAAKFALGFAVVAIGFFIYGFAGQFAVNGKTSSWVMIWGYASYSLGELLVSGLGLAMIARYVPARMGGFMMGAYFVASGISQYLGGVVANFASVPQDLVDPLQTLPVYTNLFNKLGVAAVVCTIIALAVLPLMRRLTESHHAHSSIENNAAASLRDVKAEQ | failed
21 | MAEIYRETEVTVARALRPPVPPKRASWIGTFFGVAADPRTYGALFYMLLSLLTGVFYFTWVVTGASLSVGMLILIIGVPLLVLFFGSVRVLSLVEGRVVETLLGVRMPRRPQHPGLQGGWLQRIGAMFTDARTWSTMLYFLLMLPLGILYFTVFCTLLSLSLGLAASPIAVLFDNVAVLTWDGVDVTSAWLTLPLCVVGVLLLFVTLHLARAFGTLHGMFAKQLLVKGGEAAA | failed
